Target: XPO1 (human) (human) (UniProt O14980)
Assay: other fluorescence titration; competition differential bleaching: MBP-NES competes with the probe FITC-NESPKI for XPO1, in the presence of excess RanGTP (GSP1 179ter, Q71L); analysed in PALMIST

UniProt O14980, sequence (O14980 whole entry): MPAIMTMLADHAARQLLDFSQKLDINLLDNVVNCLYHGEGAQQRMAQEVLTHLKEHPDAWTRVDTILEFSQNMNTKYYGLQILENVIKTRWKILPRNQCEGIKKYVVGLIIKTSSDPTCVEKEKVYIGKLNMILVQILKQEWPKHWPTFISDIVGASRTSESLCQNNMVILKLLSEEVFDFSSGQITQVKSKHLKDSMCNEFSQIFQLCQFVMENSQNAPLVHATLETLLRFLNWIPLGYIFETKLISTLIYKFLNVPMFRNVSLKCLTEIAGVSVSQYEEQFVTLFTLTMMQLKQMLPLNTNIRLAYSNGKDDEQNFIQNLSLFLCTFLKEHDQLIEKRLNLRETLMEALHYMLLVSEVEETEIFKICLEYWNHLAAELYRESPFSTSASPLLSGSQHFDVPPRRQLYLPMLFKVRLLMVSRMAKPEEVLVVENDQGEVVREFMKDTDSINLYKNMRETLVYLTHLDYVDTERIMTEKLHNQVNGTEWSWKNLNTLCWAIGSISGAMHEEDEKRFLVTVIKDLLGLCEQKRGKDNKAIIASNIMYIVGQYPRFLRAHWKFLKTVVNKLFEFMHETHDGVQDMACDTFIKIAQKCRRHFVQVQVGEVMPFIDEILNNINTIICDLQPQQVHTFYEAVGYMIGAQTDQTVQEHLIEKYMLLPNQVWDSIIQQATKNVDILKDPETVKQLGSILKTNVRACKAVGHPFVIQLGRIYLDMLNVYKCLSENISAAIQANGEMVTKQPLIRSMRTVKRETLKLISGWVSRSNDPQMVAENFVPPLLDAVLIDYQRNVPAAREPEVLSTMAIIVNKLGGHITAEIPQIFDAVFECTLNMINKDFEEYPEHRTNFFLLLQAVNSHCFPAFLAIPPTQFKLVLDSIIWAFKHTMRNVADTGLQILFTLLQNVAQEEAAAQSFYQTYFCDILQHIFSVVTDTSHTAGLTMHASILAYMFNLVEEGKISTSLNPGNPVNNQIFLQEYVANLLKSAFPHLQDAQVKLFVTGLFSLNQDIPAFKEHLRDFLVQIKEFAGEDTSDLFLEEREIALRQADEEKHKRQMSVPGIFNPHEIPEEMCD

Substance: MBP-NESTDP (maltose binding protein fused to the putative NES peptide of TDP-43, residues 236-253)
- Kd: 13 µM
